Experiments:
[1] = pH 7
[2] = pH 7; remark: listed apart in the source

B1: TsmE (protein)
chain: METDKKTGTSRRSFVKAAGTGAIGIATLPLSTATAFAETDNVELAQSKRKVVLAEQGSFYIGGRTVTGPGKFDPSKPVIPYSNEGATFYINQMYVNFQAPVRPRGLPLVFWHGGGLTGHIWESTPDGRPGFQTLFVQDRHTVYTIDQPGRGRGNIPTFNGPFGQLEEESIVNTVTGNSSKEGAWVRDRLGPAPGQFFENSQFPRGYEDNYFKEMGFSPSISSDEIVDAVVKLVTHIGPCVLVTHSASGVLGMRVATHAKNVRGIVAYEPATSIFPKGKVPEIPPLADKKSQIFPPFEIQESYFKKLAKIPIQFVFGDNIPKNPKSAYWFLDWWRVTRYAHSLSLEAINKLGGQASLLDLPTAGLRGNTHFPFTDRNNVQVASLLSDFLGKHGLDQNES
modifications: Methylophilus sp. S113; Thiefensulfuron Hydrolase TSME
[1]
  specific enzyme activity of TsmE to haloxyfop-R-methyl: 55 U/mg protein
[2]
  specific enzyme activity of TsmE to thifensulfuron: 67 U/mg protein

From patent US9669247B2 (priority 2011, dated 2017)
